T1: ParBc (Thermus thermophilus HB27, UniProt Q72H91 1-269)
T1 sequence: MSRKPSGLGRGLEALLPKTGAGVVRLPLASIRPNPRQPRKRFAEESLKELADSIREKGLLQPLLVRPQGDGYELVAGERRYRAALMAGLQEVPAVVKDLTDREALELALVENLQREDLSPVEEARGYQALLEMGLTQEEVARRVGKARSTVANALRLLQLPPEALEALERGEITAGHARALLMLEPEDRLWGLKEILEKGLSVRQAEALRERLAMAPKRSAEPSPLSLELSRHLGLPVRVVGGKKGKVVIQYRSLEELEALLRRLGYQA

T2: ParBm (Thermus thermophilus HB27, UniProt Q746H2 1-297)
T2 sequence: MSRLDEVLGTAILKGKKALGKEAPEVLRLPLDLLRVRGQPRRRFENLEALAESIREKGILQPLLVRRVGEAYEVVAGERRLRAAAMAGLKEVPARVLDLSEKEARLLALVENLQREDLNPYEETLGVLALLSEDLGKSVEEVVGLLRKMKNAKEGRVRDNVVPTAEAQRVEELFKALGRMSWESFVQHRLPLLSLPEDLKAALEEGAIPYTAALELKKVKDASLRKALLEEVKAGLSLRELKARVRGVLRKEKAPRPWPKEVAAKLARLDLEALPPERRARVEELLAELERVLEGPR

B1: WT parSc 25-bp probe (dsDNA)
DNA 1: TGTTTCCCGTGAAACATCAGGCGCC
DNA 2: GGCGCCTGATGTTTCACGGGAAACA
B2: WT parSm 18-bp probe (dsDNA)
DNA 1: GCAAGGACGCGTCCTTCA
DNA 2: TGAAGGACGCGTCCTTGC

Legend:
ParBc = molecular target: T1, ParBc; assay: EMSA; poly(dI-dC); WT competitor competes much better than mutant; 50 mM KCl, 10 mM Tris-HCl pH 7.0, 1 mM EDTA, 1 mM DTT, 4% glycerol, 0.02 ug/ul poly(dI-dC), 25 ul, 15 pmol FAM probe, 0 or 200 pmol ParB (competition), 25 C 30; settings: protein: recombinant; tags: His tag implied (pET21a, Ni-IDA); chain copies: 2; blunt
ParBm = molecular target: T2, ParBm; assay: as above; settings: protein: recombinant; tags: His tag implied (pET21a, Ni-IDA); chain copies: 2; blunt

Binder | binding result (ParBc) | binding result (ParBm)
B1 | binds | –
B2 | – | binds
